Measurements taken from the RNAGym collection of RNA variant scans (doi:10.1073/pnas.2313332121).

B1: TPR t1 (parent)
chain: GACCAAUCUGCCCUCAGAGCUCGAGAACAUCUUCGGAUGCAGAGGAGGCAGGCUUCGGUGGCGCGAUAGCGCCAACGUCCUCAACCUCCAAUGCAUCCCACCACAUGAUGAUGCCUGAAGAGCCUUGGUUUUUUG

Variants of: B1
Assay: polymerase ribozyme fitness, log enrichment relative to wild type (log ratio); higher = more active; in vitro selection for triplet polymerase activity
Outline: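 Fitness compares each genotype's enrichment to that of the wild type on a logarithmic scale, averaging replicates with inverse-variance weights. The logarithm is base 2. Enrichment came from Illumina sequencing of input and output libraries after one triplicate round of in vitro selection, which included frozen incubation at −7 °C, of PCR-built, transcribed mutant libraries of each subunit of a heterodimeric triplet polymerase ribozyme. Only genotypes with ≥10 input reads and ≥1 read per output were kept.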

Row | Variant | polymerase ribozyme fitness (log ratio)
1 | C13U G39U G44U A68G | -5.44
2 | C13U C56A C114U | -1.73
3 | U14C C53G C73U A83G C94U | -3.11
4 | U14G C40G G69A | -3.52
5 | U14G A50C C56G C89U A95G | -3.5
6 | U14C C97U | -3.31
7 | C13U G60A G69A U112G | -5.04
8 | U14A C40A A50G A74G G117U | -5.9
9 | U14G A27G G113A A121G U133A | -1.42
10 | U14C C56G A119U | -3.8
11 | C13U G36C A43U U112G G127U G128A | -5.23
12 | U14G A27G A29G G36C C40U C56A G63U C115U G122A | -6.64
13 | U14A C49U G60C A103C U112A C123G | -6.39
14 | U14A A37U G52A U59C G71A | -3.95
15 | C13U C62U A83C C89U | -0.547
16 | C13U C56A | -0.36
17 | C13U G61U | 0.429
18 | C13U G45A G60C | -0.761
19 | C13U G61U U129A G135U | -0.936
20 | C13U G120C C124U | 1.91
21 | U14A G57C G58A G61A A105C U109G | -6.86
22 | C13U C56U C72G C80U C82U C86U U112C | -3.52
23 | U14C A18G U21C G69U A103C C115U | -5.98
24 | C13U G45A C79G | -1.83

Row | Variant | polymerase ribozyme fitness (log ratio)
25 | C13U G36C A74C | 0.0868
26 | C13U U55G A95U A111C A121U G127C | -0.336
27 | U14A G42C G110C | -5.7
28 | U14A A37G G120A | -0.881
29 | C13U U92G | -2.48
30 | U14G A75U C94U U109C G127C U133G | -4.46
31 | C13U U54A | 1.21
32 | U14A G36U A37U | -3.4
33 | U14C C70A G117U | -5.57
34 | C13U C79A C104A | -2.96
35 | C13U G57A C79A | -1.12
36 | C13U U14A C15G G63A U81G U109A | -7.58
37 | U14C C70G | -4.01
38 | C13U U112C G135U | 1.11
39 | C13U G63A G77A C89U A90U G113A G122A U125A G127C | -5.73
40 | U14A U59A A91G | -4.05
41 | C13U G61C C101A | -2.82
42 | C13U G71A C79U C123U | 1.62
43 | C13U G39C C88U C102U C104A G113A | -2.3
44 | C13U C89G A90G G110C | -6.32
45 | U14A U21A U30G G58C C76U U112C A118C | -5.04
46 | C13U C80U | -0.427
47 | C13U C53U C114A G120C | -1.1
48 | C13U C73U G93C U106A A118G | -1.26

Row | Variant | polymerase ribozyme fitness (log ratio)
49 | U14G A37C | -2.99
50 | C13U C53U U92C C123G U131A | -0.0541
51 | U14C G69U A83U C114G C123G | -1.4
52 | C13U G51U G60U C97U A119G G127U | -2.62
53 | C13U G19U G42U G60A G110U | -5.83
54 | C13U C70G G122A | -2.19
55 | U14C A83C | -2.26
56 | U14C C20U G58U C62G | -5.26
57 | U14C C72U U78G C115U U116C | -3.05
58 | C13U G42U G71U U87A G120C | -1.77
59 | C13U G47U C88U A90G U106G | -2.13
60 | C13U C56G C72A A105U | -2.1
61 | U14C G63C | -2.35
62 | C13U C56U U106G C114G | -4.09
63 | C13U U21C G36C A50G C56A | -1.18
64 | C13U U21C A27U A37U A50G C56A G69U A111C | -4.81
65 | C13U C72G U81C A95C A119U | -1.87
66 | C13U C73G C82U | -1.5
67 | U14A G25U C34U G52U C56A A90G G93C C114G A121C G135A | -6.59
68 | C13U C40U G69U C88G | -2.27
69 | C13U C79G A83G C89G | -4.49
70 | C13U C72G | -0.128
71 | C13U C72A | 0.891
72 | U14C G36U C53G G61U | -2.63

Row | Variant | polymerase ribozyme fitness (log ratio)
73 | C13U G45U G52A A83C A103U C114U G127A | -5.65
74 | U14G C15G U33G C40A C114G U130C | -5.88
75 | U14A G127U | -3.57
76 | C13U C102G | -6.43
77 | C13U G71U U116G | -1.86
78 | U14A G60C C97G C123A | -5.56
79 | C13U C49U C79A C97G U109A | -7.98
80 | C13U C56U U92G G93C C115A G120A | -0.609
81 | C13U G48U G63C G110C | -4.51
82 | C13U C97U | -1.03
83 | C13U C97A | -3.93
84 | U14A U54A U130G | -4.16
85 | C13U C56U A121C U130G | 1.59
86 | C13U G39A A103U C123U | -4.74
87 | U14A G47A C102A A121C | -2.83
88 | C13U G63C U92A | -3.34
89 | C13U G19A A37G | -2.93
90 | C13U C124A G128A | 0.853
91 | C13U U112A U126G | 0.677
92 | C13U G63U C86A U112A | -1.22
93 | C13U G51U G52U C82A | -5.14
94 | C13U C62G | -0.959
95 | C13U C62A | -0.888
96 | U14A G63U C79U | -3.41

Row | Variant | polymerase ribozyme fitness (log ratio)
97 | C13U G44C A74C A111C | -0.273
98 | U14A C124A U130A | 0.939
99 | U14A C70G U126C G135U | -4.99
100 | U14G A91U A111G | -4.63
101 | U14C C53A | -1.96
102 | C13U G36A C64U | -0.484
103 | U14A A74G | -2.63
104 | U14G C15G | -5.02
105 | U14A U54A | -2.74
106 | U14A C40U G44C C49A | -3.39
107 | C13U C73G | -0.465
108 | C13U C64G U87G G120A C123G | -5.41
109 | C13U G39C C72U U106G | -2.03
110 | U14C C102U | -3.54
111 | U14C C15U G39A C72G G117A | -1.31
112 | C13U G113C | -1.31
113 | C13U C31A | -5.19
114 | U14C A90C | -3.39
115 | U14C A84C | -2.42
116 | U14C C56G | -2.27
117 | C13U U33A U125A | -4.68
118 | C13U C40U C124G | 1.61
119 | U14G C20A C73U C102U U133A | -4.53
120 | C13U G42U G48A | -1.13

Row | Variant | polymerase ribozyme fitness (log ratio)
121 | C13U U33C A50G A84C C124G | -5.51
122 | C13U G69U C124U G135C | 2.21
123 | U14A A121U | 1.98
124 | C13U G42U G44C C88A | -1.42
125 | C13U C123G | 2.04
126 | U14A C22A G61C G65A C101U G120C | -7.89
127 | U14A U78C | -2.86
128 | C13U C31U A46G C72U | -4.32
129 | U14C A111U | -4.43
130 | U14A A91C C115G U133A | -4.89
131 | C13U G51C | -2.27
132 | C13U G51U | -2.84
133 | C13U G93A | -0.513
134 | C13U G93U | -0.472
135 | C13U G57C U78C | 0.238
136 | U14C A18G C49G G61A G69A G113A | -5.84
137 | U14G C34A A121G | -0.374
138 | U14A G63C A83U C86A U112A U131A | -2.09
139 | C13U U32G | -5.28
140 | U14A C70U | -1.67
141 | U14A G122A | -1.5
142 | C13U U112G | 1.14
143 | C13U U112A | 1.43
144 | U14G C49A U96A | -3.85

Row | Variant | polymerase ribozyme fitness (log ratio)
145 | C13U G47A C82G | -2.07
146 | C13U G19U A50G A91U | -2.58
147 | C13U G36U U133A | -1.43
148 | C13U U21G | 0.0383
149 | C13U U21C | 0.405
150 | C13U C85A A91C C104A G120C | -3.62
151 | U14C C49U U130A | -2.74
152 | U14A C15A A41U G44A C82A U92G C123A | -5.11
153 | U14G A27U C94A | -5.54
154 | C13U U55G C72G A100C A111U | -4.67
155 | C13U C49A | -0.597
156 | C13U G36U U92A | -4.57
157 | C13U C34U C88U | -4.18
158 | U14A A16U A50U C72A U81C | -5.83
159 | C13U G42U C104U | -0.915
160 | U14A G48A C53G C64U | -2.48
161 | U14A A50C C80G G120U | -5.23
162 | C13U G57A G69A G110U | -6.08
163 | U14C C15U G39A G117A | -0.915
164 | C13U G52C G60A A95G C98U U126G | -4.8
165 | U14A C49U G71A | -3.73
166 | U14A C72U C85A G93A | -3.6
167 | C13U G60A C114A U130C | -0.229
